In US20250101098A1 (R P SCHERER TECHNOLOGIES, published 2025):
Changes are numbered by the printed parent chain.

T1: recombinant human Nectin-4-His protein (human, UniProt Q96NY8 32-349)
T1 construct: Rescreening antigen and bought ELISA antigen are treated as one molecule; also called human Nectin-4-His tagged; Ag1; not shown: His tag
T1 sequence: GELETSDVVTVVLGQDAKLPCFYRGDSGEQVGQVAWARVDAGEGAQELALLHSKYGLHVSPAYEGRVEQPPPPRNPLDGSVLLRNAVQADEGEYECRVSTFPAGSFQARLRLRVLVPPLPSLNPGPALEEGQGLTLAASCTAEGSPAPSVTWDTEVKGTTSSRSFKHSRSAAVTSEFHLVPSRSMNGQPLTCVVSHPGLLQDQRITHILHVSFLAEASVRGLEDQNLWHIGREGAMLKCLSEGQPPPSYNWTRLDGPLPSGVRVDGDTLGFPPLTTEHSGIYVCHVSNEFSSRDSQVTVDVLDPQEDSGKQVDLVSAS

T2: human nectin-4 protein expressed on the surface of cells (human, UniProt Q96NY8 32-510)
T2 sequence: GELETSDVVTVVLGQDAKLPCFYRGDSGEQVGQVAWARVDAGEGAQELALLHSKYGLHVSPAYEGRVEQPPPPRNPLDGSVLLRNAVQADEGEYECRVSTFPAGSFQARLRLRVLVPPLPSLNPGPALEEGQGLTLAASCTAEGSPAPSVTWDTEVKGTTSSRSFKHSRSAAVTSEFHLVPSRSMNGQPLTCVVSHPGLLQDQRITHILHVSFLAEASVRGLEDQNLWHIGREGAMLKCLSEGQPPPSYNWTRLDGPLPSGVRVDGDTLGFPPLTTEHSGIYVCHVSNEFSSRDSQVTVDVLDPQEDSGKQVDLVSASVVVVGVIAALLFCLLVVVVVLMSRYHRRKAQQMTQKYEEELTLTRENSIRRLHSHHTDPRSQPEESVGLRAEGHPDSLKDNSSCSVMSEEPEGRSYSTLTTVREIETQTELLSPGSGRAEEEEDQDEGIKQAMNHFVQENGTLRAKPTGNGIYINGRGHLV

B1: Nectin-4 5D9 VH3/VL3 (antibody, V domains shown)
VH: QVQLQESGPGLVKPSETLSLTCTVSGGSITNYGVHWIRQPPGKGLEWLGVIWSGGSTDYNPSLKSRVTISVDTSKNQFSLKLSSVTAADTAVYYCARSGKWYYFDYWGQGTLVTVSS
VL: DIQMTQSPSSLSASVGDRVTITCRASQSIYSNLAWYQQKPGKAPKLLVYAATNLASGVPSRFSGSGSGTDFTLTISSLQPEDFATYYCQHFWGTPTFGGGTKVEIK
notes: Humanized; also called 5D9 VH variant 3 / 5D9 VL variant 3
B2: Nectin-4 5D9 VH3/VL4 (antibody, V domains shown)
VH: B1 VH
VL: B1 VL with Q27E, S28N, S56D, F71Y
notes: Humanized; also called 5D9 VH variant 3 / 5D9 VL variant 4
B3: Nectin-4 5D9 VH2/VL5 (antibody, V domains shown)
VH: B1 VH with G27F, P61A, K64V, V71R, N76S, S79F, S83N, T86Q, A88D, L112T
VL: B1 VL with A55Q
notes: Humanized; also called 5D9 VH variant 2 / 5D9 VL variant 5
B4: Nectin-4 5D9 VH3/VL2 (antibody, V domains shown)
VH: B1 VH
VL: B1 VL with R18T, S28N, P40Q, S56D, T74K, S76N
notes: Humanized; also called 5D9 VH variant 3 / 5D9 VL variant 2
B5: Nectin-4 5D9 VH4/VL5 (antibody, V domains shown)
VH: B1 VH with E6Q, G27F, I29L, I37V, V67L, V71R, F78V, L80F, L82M
VL: B1 VL with A55Q
notes: Humanized; also called 5D9 VH variant 4 / 5D9 VL variant 5; Nectin-4 VH4/VL5
B6: Nectin-4 5D9 VH5/VL5 (antibody, V domains shown)
VH: B1 VH with I29L, I37V, L48I, D58N, V71R, F78V
VL: B1 VL with A55Q
notes: Humanized; also called 5D9 VH variant 5 / 5D9 VL variant 5
B7: Nectin-4 5D9 VH2/VL3 (antibody, V domains shown)
VH: B1 VH with G27F, P61A, K64V, V71R, N76S, S79F, S83N, T86Q, A88D, L112T
VL: B1 VL
notes: Humanized; also called 5D9 VH variant 2 / 5D9 VL variant 3
B8: Nectin-4 5D9 VH4/VL3 (antibody, V domains shown)
VH: B1 VH with E6Q, G27F, I29L, I37V, V67L, V71R, F78V, L80F, L82M
VL: B1 VL
notes: Humanized; also called 5D9 VH variant 4 / 5D9 VL variant 3
B9: Nectin-4 5D9 VH3/VL5 (antibody, V domains shown)
VH: B1 VH
VL: B1 VL with A55Q
notes: Humanized; also called 5D9 VH variant 3 / 5D9 VL variant 5
B10: Nectin-4 5D9 VH5/VL4 (antibody, V domains shown)
VH: B1 VH with I29L, I37V, L48I, D58N, V71R, F78V
VL: B1 VL with Q27E, S28N, S56D, F71Y
notes: Humanized; also called 5D9 VH variant 5 / 5D9 VL variant 4
B11: Nectin-4 5D9 VH5/VL2 (antibody, V domains shown)
VH: B1 VH with I29L, I37V, L48I, D58N, V71R, F78V
VL: B1 VL with R18T, S28N, P40Q, S56D, T74K, S76N
notes: Humanized; also called 5D9 VH variant 5 / 5D9 VL variant 2
B12: Nectin-4 5D9 VH5/VL3 (antibody, V domains shown)
VH: B1 VH with I29L, I37V, L48I, D58N, V71R, F78V
VL: B1 VL
notes: Humanized; also called 5D9 VH variant 5 / 5D9 VL variant 3
B13: Nectin-4 5D9 VH1/VL1 (antibody, V domains shown)
VH: QVQLKESGPGLVQPSETLSLTCTVSGFSITNYGVHWIRQSPGKGLEWLGVIWSGGSTDYNAAFVSRVTISRDNSKSQVFFKLNSVQADDTAVYYCARSGKWYYFDYWGQGTTVTVSS
VL: DIQMTQSPASLSASVGDTVTITCRASQNIYSNLAWYQQKQGKSPQLLVYAATNLADGVPSRFSGSGSGTQYTLKINSLQSEDFGTYYCQHFWGTPTFGGGTKVEIK
notes: Humanized; also called 5D9 VH variant 1 / 5D9 VL variant 1
B14: Nectin-4 5D9 VH1/VL3 (antibody, V domains shown)
VH: B13 VH
VL: B1 VL
notes: Humanized; also called 5D9 VH variant 1 / 5D9 VL variant 3
B15: Nectin-4 5D9 VH3/VL1 (antibody, V domains shown)
VH: B1 VH
VL: B13 VL
notes: Humanized; also called 5D9 VH variant 3 / 5D9 VL variant 1
B16: Nectin-4 5D9 VH1/VL4 (antibody, V domains shown)
VH: B13 VH
VL: B1 VL with Q27E, S28N, S56D, F71Y
notes: Humanized; also called 5D9 VH variant 1 / 5D9 VL variant 4
B17: Nectin-4 5D9 VH4/VL1 (antibody, V domains shown)
VH: B1 VH with E6Q, G27F, I29L, I37V, V67L, V71R, F78V, L80F, L82M
VL: B13 VL
notes: Humanized; also called 5D9 VH variant 4 / 5D9 VL variant 1; Nectin-4 VH4/VL1
B18: Nectin-4 5D9 VH1/VL5 (antibody, V domains shown)
VH: B13 VH
VL: B1 VL with A55Q
notes: Humanized; also called 5D9 VH variant 1 / 5D9 VL variant 5
B19: Nectin-4 5D9 VH2/VL1 (antibody, V domains shown)
VH: B13 VH with K5Q, Q13K, S40P, A62S, F63L, N73T, V78F, F80L
VL: B13 VL
notes: Humanized; also called 5D9 VH variant 2 / 5D9 VL variant 1
B20: Nectin-4 5D9 VH2/VL2 (antibody, V domains shown)
VH: B13 VH with K5Q, Q13K, S40P, A62S, F63L, N73T, V78F, F80L
VL: B1 VL with R18T, S28N, P40Q, S56D, T74K, S76N
notes: Humanized; also called 5D9 VH variant 2 / 5D9 VL variant 2
B21: Nectin-4 5D9 VH2/VL4 (antibody, V domains shown)
VH: B13 VH with K5Q, Q13K, S40P, A62S, F63L, N73T, V78F, F80L
VL: B1 VL with Q27E, S28N, S56D, F71Y
notes: Humanized; also called 5D9 VH variant 2 / 5D9 VL variant 4
B22: Nectin-4 5D9 VH1/VL2 (antibody, V domains shown)
VH: B13 VH
VL: B1 VL with R18T, S28N, P40Q, S56D, T74K, S76N
notes: Humanized; also called 5D9 VH variant 1 / 5D9 VL variant 2

Molecular target: T1, recombinant human Nectin-4-His protein
Test: ELISA, coated antigen

Row | EC50 [nM] | Binder
1 | 23.9 | B1
2 | 43600 | B2
3 | 14.7 | B3
4 | 8.62 | B4
5 | 0.195 | B5
6 | 56.1 | B6
7 | 108 | B7
8 | 0.204 | B8
9 | 7.23 | B9
10 | 11.5 | B10
11 | 2.06 | B11
12 | 0.702 | B12
13 | 0.225 | B13
14 | 0.321 | B14
15 | > 20 | B15
16 | 0.228 | B16
17 | 0.212 | B17
18 | 0.346 | B18
19 | 0.279 | B19
20 | 172 | B20
21 | 0.765 | B21
22 | 0.368 | B22

Molecular target: T2, human nectin-4 protein expressed on the …
Test: cell-based or functional assay

Row | Binder | Cell kill IC50, HekNectin4 [nM] | Cell kill IC50, MDA-MB468 [nM] | Cell kill IC50, SKBR3 [nM]
23 | B1 | 27.1 | 15.6 | 10.6
24 | B2 | 41.1 | 40.5 | 26
25 | B3 | 182 | 252 | 234
26 | B4 | 54.8 | 17.7 | 15.3
27 | B5 | 0.269 | 3.93 | 7.25
28 | B6 | 33.5 | 24 | 17.8
29 | B7 | 33.7 | 21.4 | 15.9
30 | B8 | 0.333 | 3.71 | 6.46
31 | B9 | 40 | 43.3 | 14.9
32 | B10 | 22.1 | 11 | 9.53
33 | B11 | 49.6 | 17.5 | 10.6
34 | B12 | 15.6 | 16.6 | 9.86
35 | B13 | 0.249 | 1.42 | 15
36 | B14 | 2.94 | 10.3 | 9.36
37 | B15 | 73.3 | 41.6 | 46.9
38 | B16 | 0.277 | 5.17 | 9.02
39 | B17 | 0.182 | 1.08 | 3.85
40 | B18 | 1.41 | 10.2 | 10.1
41 | B19 | 3.93 | 21.4 | 14.7
42 | B20 | 55.5 | 19.3 | 14.4
43 | B21 | 17.8 | 27 | 18.5
44 | B22 | 3.35 | 10.3 | 9.85
